Holding throughout (conditions): 20 nM; 72 h
Data set [1] has as its system MCF10A. As to the kind of experiment: percent viability (nuclei count relative to siNT); higher = more viable cells. As for the experimental part:
(§1)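 After 72 h, cells were fixed and stained with Hoechst and anti-fibrillarin, and nucleoli per nucleus were counted with CellProfiler. Values are plate-adjusted percent effect for the one-nucleolus and 5+ nucleoli phenotypes, normalised to siNT (0%) and to the positive controls siNOL11 or siKIF11 (100%), as the mean of biological triplicates. Percent viability is the nuclei count relative to siNT.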

Data set [2] has as its system MCF10A. As to the kind of experiment: 5+ nucleoli phenotype percent effect (relative to siNT 0% and siKIF11 100%); higher = more cells with five or more nucleoli. As for the experimental part: as §1
The test system of data set [3] is MCF10A. As to the kind of experiment: one-nucleolus phenotype percent effect (relative to siNT 0% and siNOL11 100%); higher = more cells with one nucleolus (ribosome biogenesis inhibition). Here is the method:
as §1

Take UCCUCUUCUCCCUCCUCCCAG [hsa-miR-877-3p]: the percent viability in the data set with MCF10A [1] was 59%. Besides, the “5+ nucleoli phenotype percent effect” value in the data set with MCF10A [2] was -15.4%. Moreover, the “one-nucleolus phenotype percent effect” value in the data set with MCF10A [3] is 6.33%.
For CUUUGCUUCCUGCUCCCCUAG [hsa-miR-6885-3p] the same measures were 41.6%, -17.3% and -5.84%.
As to UAUUGCACUCGUCCCGGCCUCC [hsa-miR-92b-3p], the percent viability in the data set with MCF10A [1] is 76.9%. In addition, in the data set with MCF10A [2], the “5+ nucleoli phenotype percent effect” value is 2.75%. Further, in the data set with MCF10A [3], the “one-nucleolus phenotype percent effect” value was -7.61%.
For CAGGGCCUCACUGUAUCGCCCA [hsa-miR-4512] the same measures were 20%, 0.0146% and 18.5%.
On to “CACUGCAUUCCUGCUUGGCCCAG [hsa-miR-6807-3p]”, for which, in the data set on MCF10A [1], the percent viability came out at 48.2%. Further, in the data set with MCF10A [2], the “5+ nucleoli phenotype percent effect” value amounted to 6.87%. Moreover, in the data set with MCF10A [3], the “one-nucleolus phenotype percent effect” value was -9.99%.
UGAGCCCUGUCCUCCCGCAG [hsa-miR-1233-3p]: in the data set on MCF10A [1], the percent viability is 63.8%. For the same sequence, in the data set with MCF10A [2], the “5+ nucleoli phenotype percent effect” value came out at 7.25%. For the same sequence, the “one-nucleolus phenotype percent effect” value in the data set on MCF10A [3] is -6.71%.
Take UUUCUCUCUCCACUUCCUCAG [hsa-miR-6833-3p]: the percent viability in the data set with MCF10A [1] was 28.4%. Further, the “5+ nucleoli phenotype percent effect” value with MCF10A [2] was 22.2%. The “one-nucleolus phenotype percent effect” value in the data set on MCF10A [3] was -1.79%.
As for CCUCCUGCCCUCCUUGCUGU [hsa-miR-1976], the percent viability with MCF10A [1] came to 79.5%. For the same sequence, the “5+ nucleoli phenotype percent effect” value with MCF10A [2] worked out at 21.5%. For the same sequence, in the data set with MCF10A [3], the “one-nucleolus phenotype percent effect” value came to 7.39%.
Take “UUCUGCCUCUGUCCAGGUCCUU [hsa-miR-5001-3p]”: the percent viability in the data set on MCF10A [1] was determined as 39.1%. In addition, in the data set on MCF10A [2], the “5+ nucleoli phenotype percent effect” value is -28.1%. Further, the “one-nucleolus phenotype percent effect” value with MCF10A [3] was determined as 19.3%.
For UAAUACUGUCUGGUAAAACCGU [hsa-miR-429] the same measures were 112%, 61.9% and -19%.
For CGCGCGGCCGUGCUCGGAGCAG [hsa-miR-4479] the same measures were 34.8%, -37.9% and 54.5%.
Take UGAGGGGUUUGGAAUGGGAUGG [hsa-miR-5194]: in the data set with MCF10A [1], the percent viability was found to be 14.8%. The “5+ nucleoli phenotype percent effect” value with MCF10A [2] was 21%. Besides, the “one-nucleolus phenotype percent effect” value in the data set with MCF10A [3] turned out to be 13.7%.
For AUUGCCUAACAUGUGCCAGAA [hsa-miR-4774-3p] the same measures were 26.6%, -31.6% and 13.7%.
For “UCGGGGAUCAUCAUGUCACGAGA [hsa-miR-542-5p]” the same measures were 81.9%, 30.4% and 1.02%.
For ACUGGACUUGGAGGCAGAA [hsa-miR-378b] the same measures were 36.5%, -14.2% and 9.39%.
In the case of CACCCGUAGAACCGACCUUGCG [hsa-miR-99b-5p], the percent viability in the data set on MCF10A [1] worked out at 62.9%. For the same sequence, in the data set with MCF10A [2], the “5+ nucleoli phenotype percent effect” value was -9.05%. Also, the “one-nucleolus phenotype percent effect” value in the data set on MCF10A [3] was 21.8%.
In the case of “GAUCCAUCUCUGCCUGUAUUGGC [hsa-miR-7151-5p]”, the percent viability in the data set with MCF10A [1] was found to be 80.6%. Moreover, the “5+ nucleoli phenotype percent effect” value in the data set with MCF10A [2] is -8.39%. Besides, the “one-nucleolus phenotype percent effect” value in the data set with MCF10A [3] is 5.88%.
As for GUGACAUCACAUAUACGGCAGC [hsa-miR-489], the percent viability with MCF10A [1] came to 22.4%. Besides, the “5+ nucleoli phenotype percent effect” value in the data set with MCF10A [2] is -33.1%. Besides, the “one-nucleolus phenotype percent effect” value with MCF10A [3] is 53.7%.
For “UAGUGGAUGAUGCACUCUGUGC [hsa-miR-3681-5p]” the same measures were 50%, -13.2% and 15.8%.
For “AGGUUCUGUGAUACACUCCGACU [hsa-miR-152-5p]” the same measures were 22%, -38.1% and 65.8%.
For “UGAGCGCCUCGACGACAGAGCCG [hsa-miR-339-3p]” the same measures were 82.2%, 27% and -25.2%.
In the case of UUUUUCAUUAUUGCUCCUGACC [hsa-miR-335-3p], the percent viability with MCF10A [1] was 157%. For the same sequence, the “5+ nucleoli phenotype percent effect” value in the data set with MCF10A [2] turned out to be 26.8%. For the same sequence, the “one-nucleolus phenotype percent effect” value with MCF10A [3] was -20.3%.
On to CAGUGAUCGUCUCUGCUGGC [hsa-miR-8079], for which the percent viability with MCF10A [1] turned out to be 41.6%. The “5+ nucleoli phenotype percent effect” value in the data set on MCF10A [2] was -35%. For the same sequence, in the data set on MCF10A [3], the “one-nucleolus phenotype percent effect” value amounted to 6.32%.
For UUCCCUUUGUCAUCCUAUGCCU [hsa-miR-204-5p] the same measures were 100%, 46% and -10.4%.
For UUGCUCUGAGCUCCGAGAAAGC [hsa-miR-5691] the same measures were 48.2%, -16.4% and -10.3%.
For AUAAGACGAACAAAAGGUUUGU [hsa-miR-208b] the same measures were 63%, 3.95% and 2.18%.
Turning to “ACAUCCUGCUCCACAGGGCAGAGG [hsa-miR-4793-5p]”, in the data set on MCF10A [1], the percent viability turned out to be 52.3%. Besides, in the data set on MCF10A [2], the “5+ nucleoli phenotype percent effect” value is -0.984%. Moreover, the “one-nucleolus phenotype percent effect” value in the data set on MCF10A [3] is -10.7%.
For “CAAAAACCAUAGUUACUUUUGC [hsa-miR-548bb-3p]” the same measures were 103%, 40.6% and -26%.
For “AGGUCUGCAUUCAAAUCCCCAGA [hsa-miR-6503-5p]” the same measures were 43.4%, 10.7% and 3.05%.
For the sequence CCUCGGUACUGGAAAGGGGUA [hsa-miR-8088], in the data set on MCF10A [1], the percent viability stood at 108%. Also, the “5+ nucleoli phenotype percent effect” value in the data set with MCF10A [2] turned out to be 15.8%. In the data set with MCF10A [3], the “one-nucleolus phenotype percent effect” value is -9.43%.
For UUACACACAACUGAGGAUCAUA [hsa-miR-3941] the same measures were 16.8%, 0.22% and 7.76%.
For AGGGCAUGUCCAGGGGGU [hsa-miR-4253] the same measures were 28.5%, 17.7% and 18.3%.
For “UUGGUGAGGACCCCAAGCUCGG [hsa-miR-7855-5p]” the same measures were 7.91%, -27.6% and 73.9%.
Take CAAACCACACUGUGGUGUUAGA [hsa-miR-497-3p]: in the data set on MCF10A [1], the percent viability was 49.6%. Further, the “5+ nucleoli phenotype percent effect” value in the data set on MCF10A [2] came to 4.48%. Further, in the data set with MCF10A [3], the “one-nucleolus phenotype percent effect” value is -11.5%.
For “ACUGCCCUAAGUGCUCCUUCUGG [hsa-miR-18a-3p]” the same measures were 58.7%, 4.11% and -2.39%.
For the sequence “CAAAACCGCGAUUACUCUUGCA [hsa-miR-548ay-3p]”, in the data set with MCF10A [1], the percent viability worked out at 25.8%. Moreover, in the data set with MCF10A [2], the “5+ nucleoli phenotype percent effect” value is -63.9%. Besides, the “one-nucleolus phenotype percent effect” value in the data set with MCF10A [3] worked out at 52%.
For “AGAACUCUUGCAGUCUUAGAUGU [hsa-miR-4680-5p]” the same measures were 72%, -12.8% and -11.5%.
For “CCAGAGAUGGUUGCCUUCCUAU [hsa-miR-4756-3p]” the same measures were 56.8%, 4.75% and -3.67%.
For CAGCAGGAGGUGAGGGGAG [hsa-miR-6165] the same measures were 101%, 36.7% and -18.4%.
As to GGAUUCCUGGAAAUACUGUUCU [hsa-miR-145-3p], the percent viability in the data set on MCF10A [1] stood at 55.6%. Further, the “5+ nucleoli phenotype percent effect” value in the data set on MCF10A [2] was -19.5%. The “one-nucleolus phenotype percent effect” value in the data set with MCF10A [3] worked out at 9.95%.
For “CUGACUGAAUAGGUAGGGUCAUU [hsa-miR-3136-5p]” the same measures were 32.7%, -32.9% and 24.8%.
In the case of GCAGCAGGGUGAAACUGACACA [hsa-miR-761], the percent viability with MCF10A [1] was determined as 56.9%. For the same sequence, the “5+ nucleoli phenotype percent effect” value with MCF10A [2] is 9.29%. The “one-nucleolus phenotype percent effect” value with MCF10A [3] came to 4.85%.
With CAAAUAAUACCACAGUGGGUGU [hsa-miR-5692a], in the data set on MCF10A [1], the percent viability worked out at 105%. In addition, the “5+ nucleoli phenotype percent effect” value in the data set on MCF10A [2] came out at 46.5%. For the same sequence, in the data set on MCF10A [3], the “one-nucleolus phenotype percent effect” value was -17.8%.
Turning to “UGAGUGUGUGUGUGUGAGUGUGU [hsa-miR-574-5p]”, in the data set on MCF10A [1], the percent viability was 42%. Further, the “5+ nucleoli phenotype percent effect” value in the data set on MCF10A [2] was -4.79%. In addition, in the data set with MCF10A [3], the “one-nucleolus phenotype percent effect” value is 3.74%.
For AUGGAGAAGGCUUCUGA [hsa-miR-4531] the same measures were 32.2%, -33.8% and 56.1%.
For “GUGGGUACGGCCCAGUGGGGGG [hsa-miR-1225-5p]” the same measures were 94.3%, 64.9% and -23.1%.
On to CUGGGCUCGGGACGCGCGGCU [hsa-miR-4674], for which, in the data set with MCF10A [1], the percent viability was found to be 31.3%. In addition, the “5+ nucleoli phenotype percent effect” value with MCF10A [2] is -33.5%. The “one-nucleolus phenotype percent effect” value in the data set with MCF10A [3] is 18.5%.
For “UGGGGGGACAGGAUGAGAGGCUGU [hsa-miR-6795-5p]”, the percent viability with MCF10A [1] was found to be 16.8%. Besides, in the data set on MCF10A [2], the “5+ nucleoli phenotype percent effect” value was -6.99%. The “one-nucleolus phenotype percent effect” value in the data set on MCF10A [3] came out at 28.6%.

The record behind these values is the supplement of paper PMC10899765.
